Experimental data published in doi:10.1101/2025.06.12.659319.

T1: ΔNp63α (RLuc- and YFP-fusions, full length) (human), Q9H3D4
T1 chain: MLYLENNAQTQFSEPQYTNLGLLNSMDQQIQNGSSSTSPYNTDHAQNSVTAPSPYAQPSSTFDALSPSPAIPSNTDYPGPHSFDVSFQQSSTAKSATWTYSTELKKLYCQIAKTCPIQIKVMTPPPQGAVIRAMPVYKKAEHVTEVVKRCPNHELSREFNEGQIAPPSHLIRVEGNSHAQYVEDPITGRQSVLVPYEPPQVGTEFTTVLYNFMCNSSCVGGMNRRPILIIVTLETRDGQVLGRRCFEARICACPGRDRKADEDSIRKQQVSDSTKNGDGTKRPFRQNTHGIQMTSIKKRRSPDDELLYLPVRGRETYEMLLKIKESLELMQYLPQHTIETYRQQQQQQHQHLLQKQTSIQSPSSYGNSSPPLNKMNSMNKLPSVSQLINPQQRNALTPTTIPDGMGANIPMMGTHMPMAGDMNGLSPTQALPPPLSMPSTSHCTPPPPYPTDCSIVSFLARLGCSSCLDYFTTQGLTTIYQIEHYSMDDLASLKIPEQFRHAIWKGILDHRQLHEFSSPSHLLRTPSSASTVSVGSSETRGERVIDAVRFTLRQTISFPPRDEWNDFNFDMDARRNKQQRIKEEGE


Experiments:
[1] = target: FITC-ΔNp63α NLSbip peptide (residues 278-302) (human); experiment: fluorescence polarisation
[2] = target: T1, ΔNp63α (RLuc- and YFP-fusions, full …); experiment: FRET or BRET; conditions: remark: other sources report otherwise

Kd [1] [nM]	BRET ratio [2]	Molecule
6.7	–	human IMPα3ΔIBB (importin α3 lacking the IMPβ1 binding domain) (domain or fragment)
–	0.18	ΔNp63α (RLuc- and YFP-fusions, full length), Q9H3D4-2 1-586 (natural protein) MLYLENNAQTQFSEPQYTNLGLLNSMDQQIQNGSSSTSPYNTDHAQNSVTAPSPYAQPSSTFDALSPSPAIPSNTDYPGPHSFDVSFQQSSTAKSATWTYSTELKKLYCQIAKTCPIQIKVMTPPPQGAVIRAMPVYKKAEHVTEVVKRCPNHELSREFNEGQIAPPSHLIRVEGNSHAQYVEDPITGRQSVLVPYEPPQVGTEFTTVLYNFMCNSSCVGGMNRRPILIIVTLETRDGQVLGRRCFEARICACPGRDRKADEDSIRKQQVSDSTKNGDGTKRPFRQNTHGIQMTSIKKRRSPDDELLYLPVRGRETYEMLLKIKESLELMQYLPQHTIETYRQQQQQQHQHLLQKQTSIQSPSSYGNSSPPLNKMNSMNKLPSVSQLINPQQRNALTPTTIPDGMGANIPMMGTHMPMAGDMNGLSPTQALPPPLSMPSTSHCTPPPPYPTDCSIVSFLARLGCSSCLDYFTTQGLTTIYQIEHYSMDDLASLKIPEQFRHAIWKGILDHRQLHEFSSPSHLLRTPSSASTVSVGSSETRGERVIDAVRFTLRQTISFPPRDEWNDFNFDMDARRNKQQRIKEEGE

The remaining lines, values behind:

Molecule	Kd [1] [nM]	BRET ratio [2]
human IMPα7ΔIBB (importin α7 lacking the IMPβ1 binding domain) (domain or fragment)	4.6	–
human IMPα1ΔIBB (importin α1 lacking the IMPβ1 binding domain) (domain or fragment)	4.3	–
